According to patent publication US20210230570:

How the values were obtained:
[1] = biological target: plasma purified human AT-III (Molecular Innovations)
[2] = biological target: antithrombin III (plasma purified human AT-III), in complex with unfractionated heparin
[3] = biological target: plasma purified human antithrombin III (AT-III) in complex with unfractionated heparin (AT-III/UFH)

Factor X (FX), P00742, sequence (P00742 whole entry, looked up): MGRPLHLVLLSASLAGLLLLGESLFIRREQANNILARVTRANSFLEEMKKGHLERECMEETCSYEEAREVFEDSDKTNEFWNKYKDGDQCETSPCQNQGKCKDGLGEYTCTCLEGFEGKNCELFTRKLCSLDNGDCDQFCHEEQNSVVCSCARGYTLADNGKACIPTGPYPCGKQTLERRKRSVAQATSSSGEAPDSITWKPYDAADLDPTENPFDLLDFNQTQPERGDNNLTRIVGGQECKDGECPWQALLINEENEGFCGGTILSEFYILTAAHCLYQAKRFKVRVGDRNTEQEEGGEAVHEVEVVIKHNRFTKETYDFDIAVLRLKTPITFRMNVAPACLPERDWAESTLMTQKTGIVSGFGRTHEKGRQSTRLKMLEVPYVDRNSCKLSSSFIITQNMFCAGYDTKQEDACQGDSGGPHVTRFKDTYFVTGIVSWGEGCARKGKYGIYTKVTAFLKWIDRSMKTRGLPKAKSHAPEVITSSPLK
Factor X, P00742, sequence (P00742 whole entry, looked up): as above

B1: FIXa-K293A/R338A/R403A (protein)
chain 1: YNSGKLEEFVQGNLERECMEEKCSFEEAREVFENTERTTEFWKQYVDGDQCESNPCLNGGSCKDDINSYECWCPFGFEGKNCELDVTCNIKNGRCEQFCKNSADNKVVCSCTEGYRLAENQKSCEPAVPFPCGRVSVSQTSKLTR
chain 2: VVGGEDAKPGQFPWQVVLNGKVDAFCGGSIVNEKWIVTAAHCVETGVKITVVAGEHNIEETEHTEQKRNVIRIIPHHNYNAAINKYNHDIALLELDEPLVLNSYVTPICIADAEYTNIFLKFGSGYVSGWGRVFHKGRSALVLQYLRVPLVDRATCLASTKFTIYNNMFCAGFHEGGRDSCQGDSGGPHVTEVEGTSFLTGIISWGEECAMKGKYGIYTKVSAYVNWIKEKTKLT
With B1 the “% of WT (kcat/KM)” value (Factor X, P00742) was 53%, the kcat/KM (Factor X, P00742) was 2.5e+07 M⁻¹ s⁻¹ and the kcat (FX activation in the Xase complex) (Factor X (FX), P00742) was 1.6 s⁻¹. For the same protein, the kcat/KM for FX activation (Xase assay with FVIIIa, PC/PS vesicles, Ca2+) (Factor X (FX), P00742) was 2.5e+07 M⁻¹ s⁻¹, the K0.5-mut/K0.5-wt [1] was 16.9 and the K0.5 [2] was greater than 999 nM. The K0.5-mut/K0.5-wt [2] was greater than 51.7.

B2: FIXa-K293E/R338E/R403E (protein)
chain 1: YNSGKLEEFVQGNLERECMEEKCSFEEAREVFENTERTTEFWKQYVDGDQCESNPCLNGGSCKDDINSYECWCPFGFEGKNCELDVTCNIKNGRCEQFCKNSADNKVVCSCTEGYRLAENQKSCEPAVPFPCGRVSVSQTSKLTR
chain 2: VVGGEDAKPGQFPWQVVLNGKVDAFCGGSIVNEKWIVTAAHCVETGVKITVVAGEHNIEETEHTEQKRNVIRIIPHHNYNAAINKYNHDIALLELDEPLVLNSYVTPICIADEEYTNIFLKFGSGYVSGWGRVFHKGRSALVLQYLRVPLVDRATCLESTKFTIYNNMFCAGFHEGGRDSCQGDSGGPHVTEVEGTSFLTGIISWGEECAMKGKYGIYTKVSEYVNWIKEKTKLT
B2 was tested, and the “% of WT (kcat/KM)” value (Factor X, P00742) was 36%, the KM (Catalytic activity of FIXa variants) (Factor X, P00742) was 0.05 µM and the kcat/KM (Factor X, P00742) was 1.7e+07 M⁻¹ s⁻¹. It also gave a kcat (FX activation in the Xase complex) (Factor X (FX), P00742) of 0.8 s⁻¹, a kcat/KM for FX activation (Xase assay with FVIIIa, PC/PS vesicles, Ca2+) (Factor X (FX), P00742) of 1.7e+07 M⁻¹ s⁻¹ and a K0.5-mut/K0.5-wt [1] of 14.2. It also gave a K0.5 [2] greater than 999 nM and a K0.5-mut/K0.5-wt [2] greater than 51.7.

B3: FIXa D104N/K106S/Y155F/R318Y/R338E/R403E/E410N (mature FIX numbering) (protein)
chain 1: YNSGKLEEFVQGNLERECMEEKCSFEEAREVFENTERTTEFWKQYVDGDQCESNPCLNGGSCKDDINSYECWCPFGFEGKNCELDVTCNIKNGRCEQFCKNSANNSVVCSCTEGYRLAENQKSCEPAVPFPCGRVSVSQTSKLTR
chain 2: VVGGEDAKPGQFPWQVVLNGKVDAFCGGSIVNEKWIVTAAHCVETGVKITVVAGEHNIEETEHTEQKRNVIRIIPHHNYNAAINKYNHDIALLELDEPLVLNSYVTPICIADKEYTNIFLKFGSGYVSGWGRVFHKGYSALVLQYLRVPLVDRATCLESTKFTIYNNMFCAGFHEGGRDSCQGDSGGPHVTEVEGTSFLTGIISWGEECAMKGKYGIYTKVSEYVNWIKNKTKLT
Work on B3 yielded a K0.5 [3] greater than 10000 nM.

B4: FIXa D203N/F205T/R318Y/E410N (mature FIX numbering) (protein)
chain 1: YNSGKLEEFVQGNLERECMEEKCSFEEAREVFENTERTTEFWKQYVDGDQCESNPCLNGGSCKDDINSYECWCPFGFEGKNCELDVTCNIKNGRCEQFCKNSADNKVVCSCTEGYRLAENQKSCEPAVPFPCGRVSVSQTSKLTR
chain 2: VVGGEDAKPGQFPWQVVLNGKVNATCGGSIVNEKWIVTAAHCVETGVKITVVAGEHNIEETEHTEQKRNVIRIIPHHNYNAAINKYNHDIALLELDEPLVLNSYVTPICIADKEYTNIFLKFGSGYVSGWGRVFHKGYSALVLQYLRVPLVDRATCLRSTKFTIYNNMFCAGFHEGGRDSCQGDSGGPHVTEVEGTSFLTGIISWGEECAMKGKYGIYTKVSRYVNWIKNKTKLT
B4 was tested, and the K0.5 [3] was 1280 nM.
